In PMC7299955, “GTP hydrolysis by Synechocystis IM30 does not decisively affect its membrane remodeling activity” (Scientific Reports, 2020):
Residue numbers refer to the chain shown, from its start. Names may count otherwise.

Key:
SynIM30 WT [1] = target: T1, SynIM30 WT (Synechocystis sp. PCC 6803, UniProt Q55707); experiment: thermal denaturation, CD at […] nm; format: binding; settings: 0.5 mM GTP with or without 2.5 mM Mg2+; 3.2 µM protein
T1 construct: gene vipp1; full length, N-terminal His-tag kept (pRSET IM30 WT), E. coli BL21(DE3), Ni-NTA; high molecular mass homo-oligomeric rings
T1 sequence (Q55707 1-267): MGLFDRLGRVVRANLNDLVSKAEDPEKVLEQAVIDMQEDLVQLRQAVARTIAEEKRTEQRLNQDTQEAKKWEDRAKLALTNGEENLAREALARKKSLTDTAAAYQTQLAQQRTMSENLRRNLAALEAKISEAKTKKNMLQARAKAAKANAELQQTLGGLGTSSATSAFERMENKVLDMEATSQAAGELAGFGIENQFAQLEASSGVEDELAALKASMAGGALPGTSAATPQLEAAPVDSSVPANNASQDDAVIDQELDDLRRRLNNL

SynIM30 WT [2] = target: T1, SynIM30 WT; experiment: malachite green Pi release; format: biochemical; settings: 0.5 mM GMP-PCP, GTP varied, 2.5 mM Mg2+, 37 °C; competitive or allosteric not resolved
Source text: malachite green Pi release on SynIM30 WT | […]

[3] = substrate: Nc1nc2c(ncn2[C@@H]2O[C@H](COP(=O)(O)OP(=O)(O)OP(=O)(O)O)[C@@H](O)[C@H]2O)c(=O)[nH]1; experiment: malachite green Pi release, Hill fit; format: biochemical, Synechocystis sp. PCC 6803; settings: 2.5 mM Mg2+, 20 mM HEPES, 37 °C, 30 min, Hill coefficient 1.29 ± 0.09
[4] = target: the molecule itself; experiment: SEC; Superose 12 10/300 GL column, 20 mM HEPES pH 7.6, 8 °C, elution followed at 280 nm; calibrated against standards of known size

For `Nc1nc2c(ncn2[C@@H]2O[C@H](COP(=O)(O)OP(=O)(O)OP(=O)(O)O)[C@@H](O)[C@H]2O)c(=O)[nH]1` [GTP], the Tm (SynIM30 WT [1]) was “This suggests that GTP binding affects the structure and stability of IM30 to some extent”.

With `Nc1nc2c(ncn2[C@@H]2O[C@H](COP(=O)(O)OP(=O)(O)CP(=O)(O)O)[C@@H](O)[C@H]2O)c(=O)[nH]1` [GMP-PCP] the “malachite green Pi release” value (SynIM30 WT [2]) was “Addition of the non-hydrolyzable GTP analog GMP-PCP”.

B1: Synechocystis IM30 wild type (inner membrane-associated protein of 30 kDa) (natural protein, Synechocystis sp. PCC 6803, UniProt Q55707 1-267, looked up)
chain: T1 sequence (Q55707 1-267)
notes: IM30 (Vipp1) of the cyanobacterium Synechocystis sp; PCC 6803; Forms high molecular mass homo-oligomers (>300 kDa by SEC); the number of chains in them is not determined here; also called SynIM30; SynIM30 WT; source: E. coli BL21 (DE3), purified (Ni-NTA, Sephadex G25 buffer exchange)
In the case of B1, the Km [3] is reported as 650 ± 140 µM, the kcat [3] is reported as 0.036 ± 0.0055 s⁻¹ and the binding result [4] is reported as “binds”.

B2: SynIM30 FERM_EE (E83A, E84A, F168A, E169A, R170A, M171A) (natural protein, Synechocystis sp. PCC 6803, UniProt Q55707 1-267, looked up)
chain: T1 sequence (Q55707 1-267) with E83A, E84A, F168A, E169A, R170A, M171A
notes: IM30 (Vipp1) of Synechocystis sp; PCC 6803 with six mutations brought into the plasmid of IM30 WT; mainly tetramers in buffers of low ionic strength; also called tetrameric SynIM30 variant; source: E. coli BL21 (DE3), purified (Ni-NTA, Sephadex G25 buffer exchange)
With B2 the “stoichiometry N” value [4] was 4.
